Experimental data published in PMC6946805.

Molecular target: Plasmodium yoelii erythrocyte-binding-like protein (PyEBL), C741 allele of P. yoelii nigeriensis strain N67C, HA::Flag-tagged (Plasmodium yoelii nigeriensis strain N67C)
Experiment: co-IP; anti-HA antibody immunoprecipitation of HA-tagged PyEBL from supernatants and solubilized pellets of iRBCs of all parasite stages lysed with saponin (0.1%) and centrifuged (1,455 x g, 4°C, 10 min); Western blot of the precipitates with anti-band 3 or anti-TER119 antibody

B1: band 3 (natural protein)
chain: MGDMRDHEEVLEIPDRDSEEELENIIGQIAYRDLTIPVTEMQDPEALPTEQTATDYVPSSTSTPHPSSGQVYVELQELMMDQRNQELQWVEAAHWIGLEENLREDGVWGRPHLSYLTFWSLLELQKVFSKGTFLLGLAETSLAGVANHLLDCFIYEDQIRPQDREELLRALLLKRSHAEDLGNLEGVKPAVLTRSGGASEPLLPHQPSLETQLYCGQAEGGSEGPSTSGTLKIPPDSETTLVLVGRANFLEKPVLGFVRLKEAVPLEDLVLPEPVGFLLVLLGPEAPHVDYTQLGRAAATLMTERVFRITASMAHNREELLRSLESFLDCSLVLPPTDAPSEKALLNLVPVQKELLRRRYLPSPAKPDPNLYNTLDLNGGKGGPGDEDDPLRRTGRIFGGLIRDIRRRYPYYLSDITDALSPQVLAAVIFIYFAALSPAVTFGGLLGEKTRNLMGVSELLISTAVQGILFALLGAQPLLVLGFSGPLLVFEEAFFSFCESNNLEYIVGRAWIGFWLILLVMLVVAFEGSFLVQYISRYTQEIFSFLISLIFIYETFSKLIKIFQDYPLQQTYAPVVMKPKPQGPVPNTALFSLVLMAGTFLLAMTLRKFKNSTYFPGKLRRVIGDFGVPISILIMVLVDSFIKGTYTQKLSVPDGLKVSNSSARGWVIHPLGLYRLFPTWMMFASVLPALLVFILIFLESQITTLIVSKPERKMIKGSGFHLDLLLVVGMGGVAALFGMPWLSATTVRSVTHANALTVMGKASGPGAAAQIQEVKEQRISGLLVSVLVGLSILMEPILSRIPLAVLFGIFLYMGVTSLSGIQLFDRILLLFKPPKYHPDVPFVKRVKTWRMHLFTGIQIICLAVLWVVKSTPASLALPFVLILTVPLRRLILPLIFRELELQCLDGDDAKVTFDEENGLDEYDEVPMPV
For B1, the band 3 signal divided by anti-HA signal, ratio N67C/N67, pellet fraction (fold (N67C over N67)) was 3.3 and the band 3 signal divided by anti-HA signal, ratio N67C/N67, supernatant fraction (fold (N67C over N67)) was 3.1.
